Molecular target: H-2Kb MHC class 1 molecule on RMA-S cells (mouse (endogenous in RMA-S))
Assay: peptide-induced MHC stabilisation assay

H-2Kb-positive cells: 55.3%
Substance: OVA peptide (SIINFEKL) synthesized with PCR-IVTT reaction

Reference: publication doi:10.1101/2024.05.07.593072
